Laboratory results from patent US20230416363A1 (KADMON, published 2023).
Substitutions are numbered along the chain they refer to.

B1: 24H9 (antibody, human IgG1, V domains shown)
VH: EVQLLESGGGLVQPGGSLRLSCAASGFTFSSYWMSWVRQAPGKGLEWVSAISGSGGSTYYADSVKGRFTISRDNSKNTLYLQMNSLRAEDTAVYYCASSPLQWVDVWGQGTTVTVSS
VL: DIQMTQSPSSLSASVGDRVTITCRASQGISSWLAWYQQKPGKAPKLLIYSASSLQSGVPSRFSGSGSGTDFTLTISSLQPEDFATYYCQQANSFPFTFGPGTKVDIK
B2: 38A11 (antibody, V domains shown)
VH: B1 VH
VL: B1 VL with G28S, S50D, S53T, A91G
B3: 32D11 (antibody, V domains shown)
VH: B1 VH
VL: B1 VL with G28S, S30N, S31I, S50D, S53N, Q55E, S56T, A91G, N92Y
B4: 39G8 (antibody, V domains shown)
VH: B1 VH
VL: B1 VL with S31P, S50D, S53K, Q55E, S56T, N92Y, P100G, D105E
B5: 38A10 (antibody, V domains shown)
VH: B1 VH
VL: B1 VL with G28S, S31T, S50D, S53R, S56N, A91G, N92D
B6: 23A8 (antibody, human IgG1, V domains shown)
VH: EVQLLESGGGLVQPGGSLRLSCAASGFTFSSSAMHWVRQAPGKGLEWVSGISGSGSSTYYADSVKGRFTISRDNSKNTLYLQMNSLRAEDTAVYYCARDNNYYYYMDVWGKGTTVTVSS
VL: DIQMTQSPSSLSASVGDRVTITCRASQSIGTWLAWYQQKPGKAPKLLIYAASTLRSGVPSRFSGSGSGTDFTLTISSLQPEDFATYYCQQSYSTPYTFGQGTKLEIK
B7: 19B10 (antibody, human IgG1, V domains shown)
VH: EVQLLESGGGLVQPGGSLRLSCAASGFTFSSYAMHWVRQAPGKGLEWVSGISNSGGNTYYADSVKGRFTISRDNSKNTLYLQMNSLRAEDTAVYYCARDNYYYYMDVWGKGTTVTVSS
VL: B6 VL with I29V, G30S, T53N, R55E, S56T, S91T
B8: 19B6 (antibody, V domains shown)
VH: QVQLVQSGAEVKKPGASVKVSCKASGYTFTGYYMHWVRQAPGQGLEWMGIINPSGGSTSYAQKFQGRVTMTRDTSTSTVYMELSSLRSEDTAVYYCAKTAGYDWLPSGLGMDVWGQGTTVTVSS
VL: B6 VL with G30N, T31S, A50Y, T53S, R55Q, S91G, T94V, Y96L, T97S
B9: 23A11 (antibody, human IgG1, V domains shown)
VH: QVQLVQSGAEVKKPGSSVKVSCKASGYTFTDYSLHWVRQAPGQGLEWMGEVIPMFDTAYYAQTFQGRVTITADESTSTAYMELSSLRSEDTAVYYCAREPFTMVRGGRYYYYGMDVWGQGTTVTVSS
VL: DIQMTQSPSSLSASVGDRVTITCRASQNINKNLNWYQQKPGKAPKLLIYDASNLQSGVPSRFSGSGSGTDFTLTISSLQPEDFATYYCQHSETFGQGTKVEIK

Molecular target: T1, hPD-1-Fc (human, UniProt Q15116 25-167)
T1 construct: domain: IgV domain; also called human PD-1-Fc; not shown: human IgG1 Fc
T1 sequence (Q15116 25-167 limits assumed): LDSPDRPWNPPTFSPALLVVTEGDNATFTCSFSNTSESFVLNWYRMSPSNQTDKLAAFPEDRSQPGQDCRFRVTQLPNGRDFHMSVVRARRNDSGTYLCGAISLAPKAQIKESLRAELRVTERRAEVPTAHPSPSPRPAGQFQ
Assay: SPR Biacore T200, PD-1-Fc immobilised

Row | Binder | Kd [nM]
1 | B1 | 1.46
2 | B2 | 1.02
3 | B3 | 0.554
4 | B4 | 0.794
5 | B5 | 0.834

Molecular target: T2, hPD-1-his (human, UniProt Q15116 25-167)
T2 construct: domain: IgV domain; monomer in solution; biotin-labelled where captured by streptavidin; also called biotin-hPD-1-his
T2 sequence (Q15116 other isoform, or with tags, fused parts or gaps limits assumed): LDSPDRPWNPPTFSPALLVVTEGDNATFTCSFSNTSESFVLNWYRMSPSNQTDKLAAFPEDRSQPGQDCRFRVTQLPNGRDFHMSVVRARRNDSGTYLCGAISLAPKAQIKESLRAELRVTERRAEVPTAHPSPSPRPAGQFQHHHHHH
Assay: SPR Biacore T200, PD-1-his immobilised

Row | Binder | Kd [nM]
6 | B1 | 13.9
7 | B2 | 4.93
8 | B3 | 1.44
9 | B4 | 2.58
10 | B5 | 4.82

Molecular target: T3, human PD-1 expressed on cells (human, UniProt Q15116 25-288)
T3 sequence (Q15116 25-288): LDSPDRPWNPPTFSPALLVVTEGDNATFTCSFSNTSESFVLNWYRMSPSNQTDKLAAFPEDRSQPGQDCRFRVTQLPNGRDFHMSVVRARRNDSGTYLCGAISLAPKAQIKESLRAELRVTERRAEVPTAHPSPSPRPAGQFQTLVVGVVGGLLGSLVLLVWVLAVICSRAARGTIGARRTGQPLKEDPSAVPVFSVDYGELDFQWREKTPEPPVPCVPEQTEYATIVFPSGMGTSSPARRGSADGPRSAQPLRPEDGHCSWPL
Assay: cell-based or functional assay

Row | Binder | EC50, Promega blockade bioassay [µg/mL] | Fold induction [fold]
11 | B1 | 0.855 | 4.97

Molecular target: T2, hPD-1-his
Assay: ELISA, PD-1-his on anti-his

Row | Binder | OD at 10 nM [OD]
12 | B2 | 0.447
13 | B3 | 0.602
14 | B4 | 0.484
15 | B5 | 0.552

Molecular target: T2, hPD-1-his
Assay: ELISA, captured hPD-1-his

Row | Binder | EC50 [nM] | OD at 10 nM [OD450]
16 | B6 | 0.523 | 1.15
17 | B7 | 5.34 | 0.38
18 | B8 | > 100 | 0.3
19 | B1 | 1.31 | 0.69
20 | B9 | 1 | 0.27

Molecular target: T1, hPD-1-Fc
Assay: ELISA, hPD-1-Fc coated

Row | Binder | OD at 10 nM [OD]
21 | B2 | 1.03
22 | B3 | 0.952
23 | B4 | 1.06
24 | B5 | 1.06

Molecular target: T3, human PD-1 expressed on cells
Assay: cell-based or functional assay
Remark: another data set of the same source

Row | Binder | EC 50, Promega PD-1/PD-L1 blockade bioassay [µg/mL] | Fold of induction [fold]
25 | B6 | 4.73 | 2.81
26 | B8 | 2.13 | 3.04
27 | B1 | 0.823 | 3.96

Molecular target: T3, human PD-1 expressed on cells
Assay: flow cytometry, hPD1-293 cells

Row | Binder | EC50 [nM] | MFI at 5 nM [MFI]
28 | B1 | 2.69 | 42.8

Molecular target: T1, hPD-1-Fc
Assay: ELISA, hPD-1-Fc coated
Remark: another data set of the same source

Row | Binder | EC50 [nM] | OD at 10 nM [OD450]
29 | B6 | 0.135 | 1.74
30 | B7 | 0.188 | 1.73
31 | B8 | 0.168 | 1.81
32 | B1 | 0.128 | 1.84
33 | B9 | 0.167 | 2.04

Molecular target: T3, human PD-1 expressed on cells
Assay: flow cytometry, SEB-activated PBMC donor one

Row | Binder | EC50 [nM] | MFI at 100 nM [MFI]
34 | B6 | 1.51 | 19.9
35 | B7 | 117 | 12.4
36 | B8 | 13.6 | 13.7
37 | B1 | 1.37 | 18.7
38 | B9 | 19 | 14.6

Molecular target: T3, human PD-1 expressed on cells
Assay: flow cytometry, SEB-activated PBMC donor three

Row | Binder | EC50 [nM] | MFI at 100 nM [MFI]
39 | B6 | 1.89 | 80.3
40 | B7 | 104 | 25.2
41 | B8 | 10.7 | 51.2
42 | B1 | 0.913 | 70.5
43 | B9 | 13.4 | 46.2

Molecular target: T2, hPD-1-his
Assay: ELISA, PD-1-his on streptavidin

Row | Binder | OD at 10 nM [OD]
44 | B2 | 1.07
45 | B3 | 0.935
46 | B4 | 0.981
47 | B5 | 1

Molecular target: T1, hPD-1-Fc
Assay: blocking ELISA, hPD-1-Fc to hPD-L1-Fc

Row | Binder | IC50 [nM] | Inhibition % (3.3 nM) [%] | Inhibition % (30 nM) [%]
48 | B6 | 1.85 | 80.5 | 93.1
49 | B7 | 28.1 | 22.9 | 65.2
50 | B8 | 2.69 | 51.9 | 85.9
51 | B1 | 2.28 | 70 | 92.9
52 | B9 | 2.61 | 54.9 | 86.6

Molecular target: T3, human PD-1 expressed on cells
Assay: flow cytometry, hPD1-293 cells
Remark: another data set of the same source

Row | Binder | EC50 [nM] | MFI at 68 nM [MFI]
53 | B6 | 0.299 | 105
54 | B7 | 16 | 45.1
55 | B8 |  | 20.8
56 | B1 | 58.7 | 59
57 | B9 |  | 21.8

Molecular target: T3, human PD-1 expressed on cells
Assay: flow cytometry, hPD1-Jurkat cells

Row | Binder | EC50 [nM] | MFI at 5 nM [MFI]
58 | B1 | 0.77 | 80.6

Molecular target: T1, hPD-1-Fc
Assay: blocking ELISA, hPD-1 to hPD-L1
Design: unit not given here

Row | Binder | Inhibition at 50 nM
59 | B2 | 93.2
60 | B3 | 91.9
61 | B4 | 93.2
62 | B5 | 92.8
